Experimental findings from patent publication US20040096852A1, “Mixed fibrils” (priority 2000, published 2004) are described below.

The conditions of series [1]: pH 2.5. The source says: Where the proteins forming the fibrils are unrelated the kinetics of fibril formation are likely to be different.
Series [2] is described as follows: Solubility of peptide under labeling conditions. The class given is physicochemical. The protocol: TTR10-19 labeling with fluorescein. The N-terminal cysteine residue of TTR10-19 was the target for labeling by the thiol-reactive fluorophore fluorescein-5-maleimide (F5M; Molecular Probes, Eugene, Oreg.). TTR10-19 was resuspended at 1 mg/ml in H2O, and the cysteine residue reduced by the addition of a 10-fold molar excess of tris-(2-carboxyethyl) phosphine (TCEP; Molecular Probes, Eugene, Oreg.) and incubation for 1 h at room temperature. F5M in DMSO was added to the peptide solution to give a 10-fold molar excess of fluorophore over peptide in a final concentration of 10% DMSO. Under these conditions TTR10-19 was fully soluble. The mixture was incubated overnight at 4° C. to ensure maximum labeling. The labeling mixture was then applied to a disposable SepPak C-18 reverse-phase chromatography column (Waters, Milford, Mass.) and washed with H2O/CH3CN (90:10 v/v). TCEP and unreacted label eluted in the wash. The peptide was then eluted from the column with H2O/CH3CN (40:60 v/v), and a mixture of labeled and unlabelled peptide was detected by MALDI-TOF mass spectrometry. […]
TTR105-115 labeling with dansyl chloride. […] The peptide was then eluted from the column with H2O/CH3CN (50:50 v/v), and a mixture of labeled and unlabelled peptide was detected by MALDI-TOF mass spectrometry. […]

Series [3] concerns the target T1, TTR10-19 (human).
T1 construct: Unlabelled synthetic peptide, present as amyloid fibrils in the assays; also called TTR10-19 fibrils
T1 peptide: CPLMVKVLDA
Description: fluorescence anisotropy of labeled peptide co-assembled into fibrils (free peptide 0.02).

The target in series [4] is T2, Bovine insulin (bovine, UniProt P01317 85-105; P01317 25-54).
T2 construct: mature; Bought protein, assembled into amyloid fibrils at low pH and high temperature; also called insulin fibrils
T2 sequence (P01317 85-105 limits assumed, chain 1 of 2): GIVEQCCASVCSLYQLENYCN
T2 sequence (P01317 25-54 limits assumed, chain 2 of 2): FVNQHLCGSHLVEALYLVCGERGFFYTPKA
The series is described as above.

Series [5] has as its target T3, TTR105-115 (human).
T3 construct: Unlabelled synthetic peptide, present as amyloid fibrils in the assays
T3 peptide: YTIAALLSPYS
The description is as above.

Series [6] addresses T1, TTR10-19. The experiment in a line: fluorescence anisotropy of labeled peptide co-assembled into fibrils (free peptide 0.03).
Description: (§1) All anisotropy measurements were monitored over 10 sec to rule out photobleaching phenomena and then averaged.
(§2) Panel a: F5M-TTR₁₀₋₁₉ incorporated into TTR₁₀₋₁₉ fibrils (dashed line) is compared with F5M-TTR₁₀₋₁₉ (solid line) in 20 mM sodium phosphate buffer, pH 1.0 at a final labeled peptide concentration of 0.3 μM. Panel b: dansyl-TTR₁₀₅₋₁₁₅ incorporated into TTR₁₀₅₋₁₁₅ fibrils (dashed line) is compared with dansyl-TTR₁₀₅₋₁₁₅ (solid line) in water at a final labeled peptide concentration of 0.9 μM. The fluorescence spectra have been normalised. […] Fibrils were pelleted by centrifugation at 9500 g for 15 min, the pellet resuspended in H₂O pH 2 and deposited on a glass slide and imaged using fluorescence light microscopy. […] TTR₁₀₋₁₉ containing 1% (w/w) dansyl-TTR₁₀₅₋₁₁₅ was resuspended at a final total peptide concentration of 10 mg/ml in 10% CH₃CN adjusted to pH 2 with TFA. The sample was incubated at 37° C. for 10 days after which time the CD spectrum indicated the formation of significant O-sheet structure, and fibrils were observed by EM.
The target of series [7] is T2, Bovine insulin. The description is as above.
Description: as §1, §2
Series [8] deals with T3, TTR105-115. Described as above.
Description: as §1, §2

Ends that are not written are not given here. * marks the point of attachment. Dansyl = CN(C)c1cccc2c(S(=O)(=O)*)cccc12

Consider YTIAALLSPYS [TTR105-115], for which, in series [1], the time remaining soluble was 48 h. For the same molecule, the solubility entry in series [2] (1 mg/ml in H2O/CH3CN (80:20 v/v), dansyl chloride, 10% DMSO, pH 9.0) is on record as “fully soluble”.
For the molecule CPLMVKVLDA [TTR10-19], in series [1], the time remaining soluble is 48 h. Besides, the solubility entry in series [2] (1 mg/ml in H2O, TCEP, F5M, final 10% DMSO) was “fully soluble”.

B1: dansyl-TTR105-115 (peptide)
peptide: Dansyl-YTIAALLSPYS
notes: Synthetic peptide derived from human transthyretin
With B1, the figures for the “fluorescence anisotropy on incorporation into fibrils” value in series [3], in series [4] and in series [5] were 0.16, 0.19 and 0.13, respectively.

B2: F5M-TTR10-19 (peptide)
peptide: C(fluorescein‑5‑maleimide)PLMVKVLDA
notes: Synthetic peptide derived from human transthyretin; also called fluorescein-5-maleimide labeled TTR10-19
In the case of B2, the results for the “fluorescence anisotropy on incorporation into fibrils” value in series [6], in series [7] and in series [8] were 0.17, 0.16 and 0.22, respectively.
